Columns and labels:
[1] = target: T1, His-tagged human dimeric FAP (recombinant FAP_ECD) (human, UniProt Q12884 27-760); assay: SPR (Biacore T200), His-tagged dimeric huFAP ECD captured by anti-His, antibody as analyte, 1:1 fit (avidity)
T1 construct: also called hu FAP ectodomain + poly-lys-tag + his6-tag
Protocol: The capacity of the bispecific constructs to bind human FAP was assessed by surface plasmon resonance (SPR). All SPR experiments were performed on a BIACORE® T200 (BIACORE®) at 25° C. with HBS-EP as running buffer (0.01 M HEPES pH 7.4, 0.15 M NaCl, 3 mM EDTA, 0.005% Surfactant P20, (BIACORE®).
His-tagged human dimeric FAP (recombinant FAP_ECD) was captured on a CM5 chip (GE Healthcare) immobilized with anti-His antibody (Qiagen Cat. No. 34660) by injection of 500 nM huFAP for 60 s at a flow rate of 10 uL/min, 10 nM murine FAP for 20 s at a flow rate of 20 uL/min and 10 nM cynoFAP for 20 s at a flow rate of 20 uL/min. Immobilization levels for the anti-His antibody of up to 18000 resonance units (RU) were used. Following the capture step, the bispecific antibodies as well as control molecules were immediately passed over the chip surface at a concentration ranging from 0.78-100 nM with a flow rate of […] for 280 s and a dissociation phase of 180 s. Bulk refractive index differences were corrected for by subtracting the response obtained in a reference flow cell, where no FAP was immobilized. Avidity was determined using the Langmuir 1:1 curve fitting. For bivalent binding the same 1:1 fitting was used leading to an apparent KD value.

[2] = target: T2, mouse fibroblast activation protein (mFAP) (mouse, UniProt P97321 1-761); assay: flow cytometry on NIH/3T3-mFAP cells (3T3_mFAP), PE-labelled anti-human IgG Fcgamma F(ab')2 secondary, MFI baseline corrected
T2 construct: expressed on transfected NIH/3T3-mFAP clone 26 cells; also called murine FAP; mouse FAP
T2 sequence (P97321 whole entry): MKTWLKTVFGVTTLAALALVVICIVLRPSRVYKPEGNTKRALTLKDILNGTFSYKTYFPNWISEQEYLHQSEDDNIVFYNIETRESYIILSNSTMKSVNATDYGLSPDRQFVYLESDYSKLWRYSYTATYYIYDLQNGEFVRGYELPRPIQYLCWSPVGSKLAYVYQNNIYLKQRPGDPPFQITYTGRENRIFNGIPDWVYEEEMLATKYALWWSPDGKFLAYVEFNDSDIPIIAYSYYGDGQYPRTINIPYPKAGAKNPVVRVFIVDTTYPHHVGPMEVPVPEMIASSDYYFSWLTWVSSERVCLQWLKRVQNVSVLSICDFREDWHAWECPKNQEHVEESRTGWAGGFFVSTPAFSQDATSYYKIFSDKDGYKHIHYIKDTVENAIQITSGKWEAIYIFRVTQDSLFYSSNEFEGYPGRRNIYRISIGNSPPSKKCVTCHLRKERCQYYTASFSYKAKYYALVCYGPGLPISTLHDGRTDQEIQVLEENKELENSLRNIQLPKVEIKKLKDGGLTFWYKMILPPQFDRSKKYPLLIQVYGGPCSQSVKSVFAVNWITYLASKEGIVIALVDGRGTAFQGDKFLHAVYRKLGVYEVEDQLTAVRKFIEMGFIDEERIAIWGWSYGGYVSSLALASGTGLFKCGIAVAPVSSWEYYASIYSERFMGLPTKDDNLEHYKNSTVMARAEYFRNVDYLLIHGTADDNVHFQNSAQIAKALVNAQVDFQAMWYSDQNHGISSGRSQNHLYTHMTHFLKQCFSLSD
Protocol: (§1) NIH/3T3-huFAP clone 19 and NIH/3T3-mFAP clone 26 were generated by the transfection of the mouse embryonic fibroblast NIH/3T3 cell line (ATCC CRL-1658) with the expression vector pETR4921 to express under 1.5 μg/mL Puromycin selection huFAP or mFAP, respectively.
(§2) NIH/3T3-huFAP, NIH/3T3-mFAP or NIH/3T3-wt cells were cultured with 1× Dulbecco's Modified Eagle's Medium (DMEM) (Gibco, Cat. No. 42430-025) supplemented with 10% Fetal Bovine Serum (FBS) (life technologies, Cat. No. 16140, Lot No. 1797306A). For the NIH/3T3-huFAP and NIH/3T3-mFAP cells 1.5 μg/mL Puromycin (Gibco, Cat. No. A11138-03) was added to the medium for selection of FAP-expressing cells. NIH/3T3 cells were removed from the plate by using enzyme-free Cell Dissociation Buffer (Gibco, Cat. No. 13151014). 0.3×10⁵ NIH/3T3-huFAP clone 19, NIH/3T3-mFAP clone 26 or NIH/3T3-wt were added in 200 μl of 1×DMEM 10% FBS to each well of a round-bottom 96-well plate (Greiner Bio-One, CELLSTAR®, Cat. No. 650185). Plates were centrifuged 5 minutes at 1700 rpm and supernatants were flicked off. Cells were washed once with 200 μL of 4° C. cold FACS buffer (eBioscience, Cat. No. 00-4222-26). All samples were resuspended in 50 μL/well of 4° C. cold FACS buffer containing the bispecific antigen binding molecules (primary antibody) or isotype control antibody DP47 at the indicated range of concentrations (in duplicates) and incubated for 120 minutes at 4° C. Afterwards the cells were washed three times with 200 μL 4° C. cold FACS buffer. Cells were further stained with 25 μL/well of 4° C. cold secondary antibody solution (1:50 dilution of secondary antibody) containing R-Phycoerythrin (PE) conjugated AffiniPure F(ab′)₂ Fragment Goat Anti-Human IgG, Fcγ Fragment Specific (Jackson ImmunoResearch, Cat. No. 109-116-098) and incubated for 60 minutes at 4° C. in the dark. Cells were washed with 200 μl FACS buffer and resuspended in 85 μL/well FACS-buffer containing 0.2 μg/mL DAPI (Roche, Cat. No. 10236276001) and acquired the same day using 5-laser LSR-Fortessa (BD Bioscience with DIVA software). Data analysis was performed using the FlowJo version 10 software (FlowJo LLC).

[3] = target: T1, His-tagged human dimeric FAP …; assay: method not stated; SPR as in Example 5.3.2 presumed
[4] = target: T3, human fibroblast activation protein (huFAP) (human, UniProt Q12884 1-760); assay: flow cytometry, NIH/3T3-huFAP clone 19 cells, PE anti-human Fc F(ab')2
T3 construct: expressed on transfected NIH/3T3-huFAP clone 19 cells; also called human FAP
Protocol: as §1, §2

[5] = target: T4, Human CD40 extracellular domain with C-terminal His-AviTag (human); assay: SPR (Biacore), antibody captured by anti-human F(ab')2, CD40 ECD as analyte, 1:1 model
T4 construct: analyte in solution in the SPR assays; also called recombinant human CD40_ECD
T4 sequence (chain, as listed by the source limits assumed): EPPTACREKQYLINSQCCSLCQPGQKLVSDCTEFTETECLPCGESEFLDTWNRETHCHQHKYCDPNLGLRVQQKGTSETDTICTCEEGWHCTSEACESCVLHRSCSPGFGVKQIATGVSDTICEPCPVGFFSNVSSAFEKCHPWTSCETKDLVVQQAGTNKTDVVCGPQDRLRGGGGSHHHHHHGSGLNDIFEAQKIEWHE
Protocol: Around 12000 resonance units (RU) of the capturing system (10 μg/ml goat anti human F(ab)′₂; Order Code: 28958325; GE Healthcare Bio-Sciences AB, Sweden) were coupled on a CM5 chip (GE Healthcare BR-1005-30) at pH 5.0 by using an amine coupling kit supplied by the GE Healthcare. The sample and system buffer was PBS-T (10 mM phosphate buffered saline including 0.05% Tween20) pH 7.4. The flow cell was set to 25° C.—and the sample block set to 12° C.—and primed with running buffer twice. The antibody was captured by injecting a 50 nM solution for 30 sec at a flow of 5 μl/min. Association was measured by injection of human CD40 extra cellular domain or cynomolgus monkey CD40 extracellular domain in various concentrations in solution for 300 sec at a flow of 30 μl/min starting with 300 nM in 1:3 dilutions. The dissociation phase was monitored for up to 1200 sec and triggered by switching from the sample solution to running buffer. The surface was regenerated by 60 sec washing with a Glycine pH 2.1 solution at a flow rate of 30 μl/min. Bulk refractive index differences were corrected by subtracting the response obtained from a goat anti human F(ab′)₂ surface. Blank injections are also subtracted (=double referencing). For calculation of apparent KD and other kinetic parameters the Langmuir 1:1 model was used. The apparent Kd was calculated using the BIACORE® B4000 evaluation software (version 1.1).

human CD40 [6] = target: T5, human CD40 (human, UniProt P25942 21-277); assay: cell-based or functional assay
T5 sequence (P25942 21-277 limits assumed): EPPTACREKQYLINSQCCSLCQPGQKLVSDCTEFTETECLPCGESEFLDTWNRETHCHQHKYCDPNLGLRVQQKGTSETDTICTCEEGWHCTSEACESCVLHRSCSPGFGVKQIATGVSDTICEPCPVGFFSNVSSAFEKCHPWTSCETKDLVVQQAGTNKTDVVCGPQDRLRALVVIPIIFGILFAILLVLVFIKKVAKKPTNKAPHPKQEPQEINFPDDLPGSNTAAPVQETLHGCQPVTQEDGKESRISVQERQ

human CD40 [7] = target: T5, human CD40; assay: flow cytometry, Daudi cells, PE anti-human Fc F(ab')2
Protocol: The binding to cell surface CD40 was tested using Daudi cells, a human B lymphoblast cell line with high expression levels of human CD40 (ATCC CCL-213). Daudi cells were cultured with 1× Dulbecco's Modified Eagle's Medium (DMEM) (Gibco, Cat. No. 42430-025) supplemented with 10% Fetal Bovine Serum (FBS) (life technologies, Cat. No. 16140, Lot No. 1797306A). 0.3×10⁵ Daudi cells were added in 200 μl of 1×DMEM with 10% FBS to each well of a round-bottom 96-well plate (Greiner Bio-One, CELLSTAR®, Cat. No. 650185). Plates were centrifuged 5 minutes at 1700 rpm and supernatants were flicked off. Cells were washed once with 200 μL of 4° C. cold FACS buffer (eBioscience, Cat. No. 00-4222-26). All samples were resuspended in 50 μL/well of 4° C. cold FACS buffer containing the bispecific antigen binding molecules (primary antibody) or isotype control antibody DP47 at the indicated range of concentrations (in duplicates) and incubated for 120 minutes at 4° C. Afterwards the cells were washed three times with 200 μL 4° C. cold FACS buffer. Cells were further stained with 25 μL/well of 4° C. cold secondary antibody solution (1:50 dilution of secondary antibody) containing R-Phycoerythrin (PE) conjugated AffiniPure F(ab′)₂ Fragment Goat Anti-Human IgG, Fcγ Fragment Specific (Jackson ImmunoResearch, Cat. No. 109-116-098) and incubated for 60 minutes at 4° C. in the dark. Cells were washed with 200 μl FACS buffer and resuspended in 85 μL/well FACS-buffer containing 0.2 μg/mL DAPI (Roche, Cat. No. 10236276001) and acquired the same day using a 5-laser LSR-Fortessa (BD Bioscience with DIVA software). Data analysis was performed using the FlowJo version 10 software (FlowJo LLC).

human CD40 [8] = target: T5, human CD40; assay: cell-based or functional assay; remark: listed apart in the source
human CD40 [9] = target: T5, human CD40; assay: cell-based or functional assay; remark: listed apart in the source
human CD40 [10] = target: T5, human CD40; assay: flow cytometry, Raji cells, Alexa488 anti-huIgG
Protocol: CD40 positive cells (Raji cells) were detached from the culture bottle using Trypsin and were counted using a Casy cell counter. After pelleting at 4° C., the cells were resuspended in FACS Buffer (2.5% FCS in PBS), adjusted to 2.0E+06 cells/mL, and dispensed to 96-well PP V-bottom-plates (25 μL/well=5.0E+04Zellen/well).
The CD40 specific antibodies were adjusted to 20 μg/mL in FACS buffer, resulting in a final concentration of 10 μg/mL. […] were added to 25 μl cell suspension and incubated for 1 h at 4° C. The cells were then washed twice in FACS buffer. After washing, the cells were resuspended in 50 μL FACS-buffer containing secondary antibody (<huIgG>-Alexa488, c=10 μg/mL) and incubated 1 h at 4° C. The cells were then washed twice in FACS buffer and resuspended in 70 μl/well FACS buffer for measurement using a FACS Canto (BD, Pharmingen).

| Binder | Kd [1] [nM] | koff [1] [s⁻¹] | kon [1] [M⁻¹ s⁻¹] | EC50 (read off the curve) [2] [nM] | Kd [3] [nM] | EC50 [4] [nM] | Kd [5] [nM] | koff [5] [s⁻¹] | kon [5] [M⁻¹ s⁻¹] | EC50, activation of human Daudi cells (CD70 expression) with FAP-coated Dynabeads (human CD40 [6]) [nM] | EC50 (human CD40 [7]) [nM] | EC50, activation of HEK-Blue CD40L cells (SEAP) with murine FAP-coated Dynabeads (human CD40 [8]) [nM] | binding result [2] | EC50, activation of human B cells with FAP-coated Dynabeads, increase of CD86 expression (human CD40 [9]) [nM] | EC50 (human CD40 [10]) [µg/mL] |
| --- | --- | --- | --- | --- | --- | --- | --- | --- | --- | --- | --- | --- | --- | --- | --- |
| P1AE0408 CD40 × FAP (28H1) (2 + 1) head to tail (bispecific antibody, human IgG1, kappa, L234A L235A, a CD40 Fab fused to the N-terminus of the FAP crossFab on the knob chain; also called CD40 × FAP 2 + 1 head-to-tail; 2 + 1 head-to-tail format) heavy 1: not shown heavy 2: EVQLVESGGGLVQPGGSLRLSCAASGYSFTGYYIHWVRQAPGKGLEWVARVIPNAGGTSYNQKFKGRFTLSVDNSKNTAYLQMNSLRAEDTAVYYCAREGIYWWGQGTLVTVSSASTKGPSVFPLAPSSKSTSGGTAALGCLVEDYFPEPVTVSWNSGALTSGVHTFPAVLQSSGLYSLSSVVTVPSSSLGTQTYICNVNHKPSNTKVDEKVEPKSCDKTHTCPPCPAPEAAGGPSVFLFPPKPKDTLMISRTPEVTCVVVDVSHEDPEVKFNWYVDGVEVHNAKTKPREEQYNSTYRVVSVLTVLHQDWLNGKEYKCKVSNKALGAPIEKTISKAKGQPREPQVCTLPPSRDELTKNQVSLSCAVKGFYPSDIAVEWESNGQPENNYKTTPPVLDSDGSFFLVSKLTVDKSRWQQGNVFSCSVMHEALHNRFTQKSLSLSPGK light 1: DIQMTQSPSSLSASVGDRVTITCRSSQSLVHSNGNTFLHWYQQKPGKAPKLLIYTVSNRFSGVPSRFSGSGSGTDFTLTISSLQPEDFATYFCSQTTHVPWTFGQGTKVEIKRTVAAPSVFIFPPSDRKLKSGTASVVCLLNNFYPREAKVQWKVDNALQSGNSQESVTEQDSKDSTYSLSSTLTLSKADYEKHKVYACEVTHQGLSSPVTKSFNRGEC light 2: EVQLLESGGGLVQPGGSLRLSCAASGFTFSSHAMSWVRQAPGKGLEWVSAIWASGEQYYADSVKGRFTISRDNSKNTLYLQMNSLRAEDTAVYYCAKGWLGNFDYWGQGTLVTVSSASVAAPSVFIFPPSDEQLKSGTASVVCLLNNFYPREAKVQWKVDNALQSGNSQESVTEQDSKDSTYSLSSTLTLSKADYEKHKVYACEVTHQGLSSPVTKSFNRGEC | 6 | 0.00174 | 291000 | ~8 | 1.5 | 7.99 | – | – | – | – | – | – | – | – | – |
| P1AD4470 CD40 IgG (antibody, V domains shown, bivalent anti-human CD40 IgG1; cross-linked with anti-human Fc F(ab')2 in the functional assays; also called CD40 IgG1 PGLALA; CD40 IgG1) VH: EVQLVESGGGLVQPGGSLRLSCAASGYSFTGYYIHWVRQAPGKGLEWVARVIPNAGGTSYNQKFKGRFTLSVDNSKNTAYLQMNSLRAEDTAVYYCAREGIYWWGQGTLVTVSS VL: DIQMTQSPSSLSASVGDRVTITCRSSQSLVHSNGNTFLHWYQQKPGKAPKLLIYTVSNRFSGVPSRFSGSGSGTDFTLTISSLQPEDFATYFCSQTTHVPWTFGQGTKVEIKR | – | – | – | – | – | – | 4.6 | 0.00781 | 1.69e+06 | 0.756 | 0.104 | 0.125 | no binding (tested: 500 nM) | 0.072 | 0.09 |

Reference: patent publication US20250179205A1 (Hoffmann-La Roche, published 2025)
